The values below come from the supplement of paper PMC12636428.

The test system of this data set is Saccharomyces cerevisiae. Kind of data set: transcriptional activation domain activity (GFP:mCherry ratio, weighted mean of sorted bins, harmonized to initial dataset scale) (arbitrary fluorescence ratio units); higher = stronger transcriptional activation. The following applies: beta-estradiol 1 µM; induction time 4 h. The essentials: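 Activation activity, the read-weighted mean of bin median fluorescence averaged across barcodes, was linearly mapped onto the scale of the initial dataset. It was measured for barcoded protein tiles fused to an estradiol-inducible synthetic transcription factor at URA3 in GFP-reporter yeast diploids. Cultures diluted 1:5 into SC with 1 uM beta-estradiol were held 4 hours at 30 °C, sorted into 8 bins by GFP:mCherry ratio, and barcode-sequenced, and tiles under 50 reads were discarded.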
On to “MLPRQRHSFWSVVTYLIMYYIIMYAFLYGIKYTHWIYFLSNHLVMWLLLLHFL”, for which the “transcriptional activation domain activity” value worked out at 41100.
For “DEEQDRSHRHRRSRSASPRRHKSGNEARERDRHGDDHSRRHRRRRSHERSHRH”, the “transcriptional activation domain activity” value was determined as 48700.
As to “MESHSFLPICRYFWGVMPQLMPSFYLNLLSWFSLCFIVFHWLHTVVIFPYLLL”, the “transcriptional activation domain activity” value came out at 49200.
Turning to “GKGIGGFNCVAASLGVVQVGMQWSCFAVILLLFLIYFPSASSLGSPATTPTGT”, the “transcriptional activation domain activity” value is 36400.
As to “AKSAKGGSRRKSAATSTRTSAPRRSTGNDTGRSFKPAKDARGSSSGDAEDKIK”, the “transcriptional activation domain activity” value was determined as 37200.
Next, “MLVRLQNRLLLLGIFSHCVYGWHLEVDYVSLSDAIQTVVVQCRNLTFHITGLG”: 53100.
The same measure for “LSHSFFSSCCCLLRTLGRFLLFIIFFLSFYFFIFTFFFFFSFQTYLLLYLLLI”: 31400; for “MFCLRFFVPLLLLPAPSAPPLLILTLLISMWFLHRPCIYCSLLIVGFLISSCS”: 55900; for “MRRLGWVGVSGLVSFLFTSFFFLVSFFLLLLLLLLTHFSFLFFFFAFTFILMM”: 45500.
The same measure for “TDDAKAKRKKEKKEKKEKSRSKKSADEGSDNEDGTSEERSKKRKSKSKSKSRS”: 30700.
Regarding “GASYVIFCLRYYYKGKRRRLTNRLVAYKRALLLVQFVFTHHKWPSYIVILESY”, the “transcriptional activation domain activity” value amounted to 46200.
Regarding “RKKRRSTRRSRSREESSRRRGDDRRRNHSRDRSTTSRRRSRKSRSPSRDRSSR”, the “transcriptional activation domain activity” value is 32300.
Regarding “DSLFFDHDLLSSSITNTNNGQGSNNGRQASKDDTLNLLDTTVNSNNNHNANNE”, the “transcriptional activation domain activity” value was found to be 32900.
Next, “AQPKTEAPKKVAKPRAKKGEAAEGEVKKGGRGKKRSAEGEEKAEEKAEDKPAE”: 30600.
The same measure for “SRREDGVKVEDADDGGVSLEKGVEDLNIDNNNGKKEKGGVFVHCAAGKSRSVS”: 43100; for “MLILLYLSLLPILYFCTDGLIKDTLLYLHACGLIVWWHCPSSTGDMYGLRHFW”: 55800; for “TTLVTGTQLFFLLSFRDTMFAFSFLLFSPFVLFLWYGFFSSGALFISLICFLV”: 54700.
“SFALCNRIVVGCAILRTGKILKSWHVARVSHFSTFVFNGVIHGSIPNMILTRK”: the “transcriptional activation domain activity” value came out at 55100.
The same measure for “FLCIFFLSLFFYTFSISYLYVWCLPPPPRRQTCLPTLTFISLPFVSALFLSFG”: 59100; for “MLFPPPPFSLFFFSLPFFLFFKTDLFFPCLIFLIPLYPFSPLVGDRLAILLGV”: 55100; for “ATAANEEGEEGEATPKKTPRKRAAKKQDVDGDASPKKKGRGKKVSDDETNVKS”: < 6570.
For the sequence “TTGCREGFDWTPLSSVRYGGICGGRLFSICHTTFEGLAIIGMPNILICNYNVT”, the “transcriptional activation domain activity” value came out at 43300.
Take “MIWRYVWYTLVLGCLFCCRPNYSLLVPNTIDLHRLWLGFRFQILFVAWGVYLV”: the “transcriptional activation domain activity” value worked out at 58900.
On to “MSWIVWSGKHIHMSCNFIFIICPNNMKYMLSVFWRWFYKRSVIWKVWIRLFFI”, for which the “transcriptional activation domain activity” value was 47600.
Turning to “MHFLNFLFYCVYYLPLNHTIFFYFVWLTLTLLFFFFLVVYIHISSISSFFYIC”, the “transcriptional activation domain activity” value turned out to be 56600.
As for “PLHLLGDKAEVEIGGVWSAGMAYGSRELVERHLFSLYFMLPLVAVCIGFLYHN”, the “transcriptional activation domain activity” value is 41200.
For “AASAASEPAPKKRGRPARAKEEVVAAEPEPAVEQPKKGRGRGRKAAEPEPVAV”, the “transcriptional activation domain activity” value amounted to 18700.
Consider “AGNATAGTGTGKGKGKGKGKGKGKGKKAGKNAGKNAGKNAGKNSTAAAGGQQK”, for which the “transcriptional activation domain activity” value amounted to 20100.
For the sequence “STTRQQRASLPLIHDIESFANDSVMANPLSDSASFLSEENEDDAFGALNYNSL”, the “transcriptional activation domain activity” value is 51500.
In the case of “GKKRKSTGAKSREQPKAKRIAKAKTKTGAFGAGRKGATAGHAKGRAAAAGPKA”, the “transcriptional activation domain activity” value was 59000.
In the case of “RALLLLSYCAFLKTTGVTDGEIVQLISTSAELKFRPWSLVRGAECVNRCITAL”, the “transcriptional activation domain activity” value amounted to 47400.
Regarding “RAVAVLRRGDFAGAGGGGGSGAGGGKRRKEKEKEEQEERRRRPAVASRAVKDL”, the “transcriptional activation domain activity” value came to 57500.
“YFWVLGAIPYFVFHSAFCLLWSLFFWFSCWYLSFKILLFRCFFFLFYYSMPSQ”: the “transcriptional activation domain activity” value amounted to 55200.
As to “SPWVSWADTHSNFSRVVQVPSIYWRADPYSTASAETLRWATVVCVLLFFAYFR”, the “transcriptional activation domain activity” value was 42700.
Next, “QPSQVPQEDQPEHEPERKRRPGRPRGSKNRKPRADSAKQPQQQQQQQQQPHPQ”: 59500; “TSIFGSNNNTGGTMFGSNTNTSSPFGGGGTSNTSIFARRFALSLALLRSPTSY”: 30900.
Regarding “NFGLMSGLYLYVCILGDSWCPSIDLIFNWMSYAYLWNVYIFLLEIIPVTLMVL”, the “transcriptional activation domain activity” value turned out to be 72100.
As to “MSEPPRKRAKLACVTCNARRVKCDVTDRHPCSNCAAGNVECETRESRRGKHIR”, the “transcriptional activation domain activity” value was determined as 24000.
In the case of “AILLLSAYVLFLVVWLIFFSRVILLIPFFPGTPYNLAMPVVLLGLFYCFVFTW”, the “transcriptional activation domain activity” value worked out at 32700.
In the case of “SQKKHCELCKTPFRFTKLYSPSMPKTLPVYVFLSHVAKYLLRNLLVEARAMLV”, the “transcriptional activation domain activity” value turned out to be 42900.
The same measure for “IIALLLRFYDPSSGKVLVGPDDLRNLNVRSLRSHIALVTQSPVLFSGTILDNI”: 42100; for “NLLMRPRYPPNQFISKISLRLILTDLPYMIFVFSGIFIMLGLFYPIFYLQLYA”: 50400; for “MKEPVDDNVLQEPVPFEDFKFSFGMDPDFSFPLEPTLPTPQLSFMQDPFLLFP”: 116000.
Regarding “MCYIIIVRWKRVWISCSCLAVIPVCPSIIPLLSILILSSLFFPFNPIFPIHGI”, the “transcriptional activation domain activity” value turned out to be 34100.
For “ARTSDYSIAQWRFLTKLLLVHGRWNYNRICKYIVGTFWKEIVFYLTQALYQRY”, the “transcriptional activation domain activity” value amounted to 45400.
Turning to “NLMLQVVSPRIWFPSMQLIWGVLTFWWVAMPCRRIFITHILDHGIQIYAIRFF”, the “transcriptional activation domain activity” value came to 61400.
Turning to “MIHYPPLLQSPRLVCTLLCSVDVIWLWFNHLFTLFITWRGVLFFLSFFTLLFF”, the “transcriptional activation domain activity” value is 51600.
In the case of “MTLGLMAFSEYNFADYACLFLFSSFLLFYLIFPIFSFLLLCVYFFFVSFHLYA”, the “transcriptional activation domain activity” value stood at 27600.
Next, “FVLLFSIFQILFSKSPFVLCVWLISLALIATIKTMYSVLITWHLQFLAFPFYS”: 54400.
For the sequence “LFSPFPPSISFPLSSHSSLPPLFPPLFPPLFPPFLPSLCFPLFPSLPFPPLPL”, the “transcriptional activation domain activity” value was 19500.
“YEHSFEIWLACTVVFPGAGNIGFTLLEYRLGHRSLASSFFENITWIPFFFFFF”: the “transcriptional activation domain activity” value is 53900.
As to “MFLPFSLSINHLPSLLLQPFILSLILLLFFLCLLHRLFPFLLQFFPFLFQFLS”, the “transcriptional activation domain activity” value was 50100.
For “GRAESPYNAKYLTGAFSSGSSNGAATATAASFAVFGMGSETVSSGRSPASNNA”, the “transcriptional activation domain activity” value stood at 44500.
Turning to “MGSTIVFSVVFIWFFLVSFQQLLPFPKGTFFLLFLFPFSLSLPESSCIIFLAF”, the “transcriptional activation domain activity” value was determined as 51800.
Turning to “QSLNFDLQTNSYYSNARGSDPSSYAIEGEYKTLATDDLGNILNLNYGETNEVI”, the “transcriptional activation domain activity” value was found to be 80000.
Turning to “TVEFLLPFLSFSLLGCLFIFYFIFFLCFLFFFSQTFCFFISSNCWCFVSNLLP”, the “transcriptional activation domain activity” value was 34700.
Next, “PQSANITGACTELGEHTDCPIWNLLDARSLFRSCADLLISSWTWWWLAACRYV”: 44700; “DESINGSEMPDFSLDLVSNDRQTGLEALDYDIHNYFPQHSERLTAEKIDTSAC”: 76700; “QEKEGGAKEAQPDADADAEAEGKAARQKARKAVVSAASDDEGDDEEEEEEEEG”: 10000.
Next, “TGGFGSTNTGGGGLFGGGNTSNTGGGFGSTAGGFGSTNTTSAFGGAAKPAFGA”: 19300.
Regarding “NVQPTANAASANAAAAAAAAASNSYAIPENELLDEDTMNFISSLKNDLSNISN”, the “transcriptional activation domain activity” value was 59700.
Consider “IPTPFASHAFNPVDGFLQSLPYHLYAYFIPMHKYLYLSMFVFVNFWTVMIHDG”, for which the “transcriptional activation domain activity” value was found to be 58500.
For the sequence “KDDRDDRDRRGGDDRREDREERRGGEDRGEDRGGEGRRDSRQEGGANREPSPS”, the “transcriptional activation domain activity” value turned out to be 23700.
As to “WRHLFLGQLPLLMSEPFTNSTPIIDPLLNNDFELIDFEVNLMKYLQSKDQQLS”, the “transcriptional activation domain activity” value was found to be 117000.
Next, “DGGGRDSEKRGKGKLITRKSHRKSRLGCGNCKQRRIKCDEKRPHCTNCQKRDI”: 37600; “VRVLGHDTLYFLTLYLLKAELFFVFFFFLFFRYMLEKRTVIKFTFFFYPCLFE”: 54700.
Next, “RRSHRSHHSSRSRDEEGKERRSSRGEDEKRAHRSRDEDEGRRRRRSHRDRDEE”: 18900.
The same measure for “MSDLETPKRRRPGVRPRASQACRACAAAKVRCDNLQSCHRCQNKRVACVRGSH”: 34100; for “ALVTVLLLLMGYLPHLNTVTLTVRTFRNRLSHHDFSQHELAIFLDLLPRRCPN”: 98800.
As to “ICGSVLKELEHKPFFIWFLRCVYHKVLVVLKNGPSAVVSVAEVQRPPQIGDEV”, the “transcriptional activation domain activity” value is 30400.
In the case of “KNGWHIIGSSNNVVAYRLRVYQCMDLTTFFSLQAAFSDCERYFVASAIVLDKK”, the “transcriptional activation domain activity” value stood at 38500.
With “KTIWRDVKEGGECSVEEMCLSYYRSEGWKGYHSEGGILKTLFAYLFYDIMFLY”, the “transcriptional activation domain activity” value stood at 65700.
Next, “WGFRVMSQLPTFWYRTEYFWIDYPHWDMKPELKRYYLMQMAYWLQQLIVLVLG”: 92400; “YLPTLPDAFPFGADIGSLDAISNIPWMSWNPVMAHFSFPWFMDELEMPLELPD”: 102000.
